Laboratory results published in the RNAGym collection of RNA variant scans (doi:10.7554/elife.90254).

B1: LINE1-full (parent)
chain: UACGUAGGUGGUUUUCCCCUGAUAGUGCUAAGGGGGCCUGGAAGUUUGGACUGGGCAGAGCUCAACACAGCGUGGCAAAGUGGCUGUGGCUAGACUGCCUCUCUGGAUUCCUCGUCACUCAGCAGGGCAUCUCUGAGAGAAAUGCC

Variants of: B1
Experiment: self-cleavage, relative activity (ratio to wild type); higher = more cleavage; in vitro, sequencing; the parent is a self-cleaving ribozyme

| Variant | self-cleavage |
| --- | --- |
| G49A U96C | 0.03 |
| U1A A30C | 1.44 |
| A43G A78U | 1.86 |
| G36C A57U | 0.07 |
| U39G U52A | 1.16 |
| A117U A138G | 1.52 |
| U108C U115C | 1.86 |
| U12C G93A | 0.08 |
| A59U U87A | 0.07 |
| U45C U81C | 0.94 |
| G27U A67G | 0.28 |
| G27U U134A | 1.29 |
| A43G A67U | 0.06 |
| A43G A50U | 0.64 |
| C18A A77U | 0.97 |
| G27C U112G | 1.11 |
| G7U A30G | 0.78 |
| U52A A117U | 1.35 |
| U96A U112A | 0.06 |
| A6G A141G | 1.03 |
| U9A A42G | 1.14 |
| U45A A138G | 1.32 |
| U96A U115A | 0.08 |
| U1C U73G | 1.53 |

| Variant | self-cleavage |
| --- | --- |
| A42G U52A | 1.52 |
| G36C U85C | 0.16 |
| A65G A138G | 0.06 |
| U13C U62G | 0 |
| G11C A57G | 0.71 |
| C76U A129U | 1.57 |
| A50G U52C | 1.08 |
| A67U A136G | 0.2 |
| G21A A57U | 0.02 |
| C16U U132A | 1.41 |
| A6G G60U | 0.19 |
| A57G C84U | 0.11 |
| G86A A136G | 0.09 |
| G11U U20C | 0.34 |
| A50G U73A | 0.78 |
| A67C A78U | 0.07 |
| U45C A136G | 1.5 |
| A24G U85A | 0.13 |
| A50G A65C | 0.1 |
| U1A U115A | 1.1 |
| U15A A94U | 0.25 |
| G88A A142G | 0.06 |
| U45G U119G | 0.44 |
| A43G C113U | 1.12 |

| Variant | self-cleavage |
| --- | --- |
| U23G A42G | 1.46 |
| U13C A30G | 0.77 |
| A57G U134A | 0.62 |
| U9C A121U | 1.32 |
| G82A U119A | 1.96 |
| G35A A64U | 0.31 |
| U1C A64G | 0.2 |
| C3G U81C | 0.75 |
| A67C | 0.06 |
| U20A A140G | 1.16 |
| U9A U26A | 0.7 |
| G93U U108C | 0.05 |
| G54A G82A | 0.9 |
| A117U C131A | 1.27 |
| U108G G122C | 0 |
| A94U C116U | 0.33 |
| A43G U112C | 1.2 |
| U5C U143C | 0.11 |
| U45G A107G | 0 |
| C90G U134A | 0.03 |
| U102C U132C | 1.75 |
| U15A U47C | 0.9 |
| A65U G80A | 0.28 |
| G34U A140G | 1.67 |

| Variant | self-cleavage |
| --- | --- |
| G135A | 1.27 |
| G54U A92G | 0.08 |
| U46C U112C | 1.78 |
| C111U A121U | 1.28 |
| U45C C51U | 1.58 |
| G53U A65C | 0.07 |
| U47A U96A | 0.08 |
| A77G G82A | 0.85 |
| C61U U108C | 0.01 |
| U13A U14A | 1.14 |
| A67U A121C | 0.2 |
| G83U A124G | 0.36 |
| G83U | 0.86 |
| A6G U81C | 1.78 |
| U45A A79G | 1.39 |
| U13C G49A | 0.88 |
| U15A U45G | 0.73 |
| U9A A140C | 1.06 |
| U91C C99A | 0.11 |
| U15C A138U | 1.86 |
| U1A U87A | 0.13 |
| U52A A77U | 1.03 |
| A2G U62A | 0.09 |
| C116A U132A | 0.67 |

| Variant | self-cleavage |
| --- | --- |
| A57G A107U | 0.92 |
| U20C A142G | 1.36 |
| U26A A136U | 1.2 |
| U46C A69C | 0 |
| U45C C71U | 0.98 |
| A92G A136G | 0.08 |
| C37G U134C | 0.66 |
| U14A U81C | 1.1 |
| A117U U134A | 1.54 |
| U12A U73C | 1.11 |
| U81A U132C | 2.25 |
| U39C U119A | 1.08 |
| C118G | 1.27 |
| A78U U85A | 0.11 |
| U14C U29C | 1.4 |
| U26C C95A | 0.1 |
| A121G A138C | 1.71 |
| U73A U87C | 0.06 |
| A6G U91C | 0.51 |
| A50U A129U | 1.12 |
| U23C U73C | 1.81 |
| A64C U119C | 0.35 |
| A107U A129G | 2.12 |
| U39C U134A | 0.86 |

| Variant | self-cleavage |
| --- | --- |
| U39C U134G | 1.39 |
| U100A U134A | 1.02 |
| A31G A59U | 0.42 |
| U13C A65G | 0.12 |
| G34A U143G | 1.64 |
| U15G G114A | 0.87 |
| A59G G60C | 0.07 |
| A2G C90U | 0.15 |
| G54U C71U | 0.16 |
| G58A U81C | 0.05 |
| G36U A43U | 1.24 |
| U23A U39C | 0.65 |
| U26C G105A | 1.32 |
| A121G G127A | 1.74 |
| A79U U119C | 2.41 |
| A43G G70U | 0.15 |
| G25A U96C | 0 |
| G25A A142G | 1.35 |
| U14C U102C | 1.09 |
| U47G A107G | 1.24 |
| C71A A124G | 0.13 |
| A24G U81A | 0.47 |
| U23C A65U | 0.09 |
| G7U C123U | 1.39 |

| Variant | self-cleavage |
| --- | --- |
| A2U A141G | 1 |
| U1C A138U | 0.57 |
| G83A A94U | 0.24 |
| A69U | 0.06 |
| A59U | 0.8 |
| U47G U130C | 1.24 |
| U81C A138G | 1.14 |
| G34U A67G | 0.54 |
| C63U A77G | 0.62 |
| U112C A124C | 0.77 |
| U100A U143A | 0.91 |
| U47C U132C | 1.62 |
| U9C C98G | 0.22 |
| U62C A79G | 0.06 |
| A6U U104C | 1.02 |
| G80U U102A | 1.34 |
| G60A U73C | 0.02 |
| A69U C131A | 0.07 |
| U9G U73C | 1.24 |
| U20C U132C | 1.23 |
| U62C A67G | 0.09 |
| U112C G144A | 1.58 |
| A6U G41A | 1.52 |
